Measurements: patent US20060211022A1

Target: NGFR/EPOR hybrid receptor NECD (NGFR/EPOR chimera D) on 32D/NECDsc-14 cells (human; mouse)
Assay: cell-based or functional assay

NGF, sequence (P01138 122-241): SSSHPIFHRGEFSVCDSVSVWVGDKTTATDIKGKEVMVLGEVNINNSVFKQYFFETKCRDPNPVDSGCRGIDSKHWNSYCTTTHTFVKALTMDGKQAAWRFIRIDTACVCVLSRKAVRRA
NGFR/EPOR hybrid receptor NECD (NGFR/EPOR chimera D) on 32D/NECDsc-14 cells (human; mouse), sequence (chain, as listed by the source mutant limits assumed): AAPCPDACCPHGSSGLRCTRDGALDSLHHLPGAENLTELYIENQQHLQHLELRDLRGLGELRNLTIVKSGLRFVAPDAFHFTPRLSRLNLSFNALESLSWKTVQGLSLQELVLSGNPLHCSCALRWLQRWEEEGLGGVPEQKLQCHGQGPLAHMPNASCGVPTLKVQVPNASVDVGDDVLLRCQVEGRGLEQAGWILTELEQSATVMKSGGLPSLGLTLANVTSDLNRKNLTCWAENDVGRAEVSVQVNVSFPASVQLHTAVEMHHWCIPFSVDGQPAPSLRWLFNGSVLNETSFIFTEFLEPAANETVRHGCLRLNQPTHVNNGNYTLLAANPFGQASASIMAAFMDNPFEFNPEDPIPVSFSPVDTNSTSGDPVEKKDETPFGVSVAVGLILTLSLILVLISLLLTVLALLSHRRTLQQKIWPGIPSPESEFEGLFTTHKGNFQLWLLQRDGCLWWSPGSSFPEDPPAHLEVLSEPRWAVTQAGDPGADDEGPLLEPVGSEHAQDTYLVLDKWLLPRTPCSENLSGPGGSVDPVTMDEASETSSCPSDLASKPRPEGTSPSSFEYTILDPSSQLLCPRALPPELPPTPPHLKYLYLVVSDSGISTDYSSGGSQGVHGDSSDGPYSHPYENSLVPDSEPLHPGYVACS

Substance: NGF (ligand)
- NGF dose response in serum matrix, 0.02 ng/mL NGF, 1% human serum: 947
- NGF dose response in serum matrix, 0.02 ng/mL NGF, 2% rat serum: 1190
- NGF dose response in serum matrix, 0.02 ng/mL NGF, 5% cyno serum: 2180
- NGF dose response in serum matrix, 0.02 ng/mL NGF, no serum: 595
- NGF dose response in serum matrix, 0.07 ng/mL NGF, 1% human serum: 1480
- NGF dose response in serum matrix, 0.07 ng/mL NGF, 2% rat serum: 3520
- NGF dose response in serum matrix, 0.07 ng/mL NGF, 5% cyno serum: 5760
- NGF dose response in serum matrix, 0.07 ng/mL NGF, no serum: 1390
- NGF dose response in serum matrix, 0.21 ng/mL NGF, 1% human serum: 5830
- NGF dose response in serum matrix, 0.21 ng/mL NGF, 2% rat serum: 12000
- NGF dose response in serum matrix, 0.21 ng/mL NGF, 5% cyno serum: 15800
- NGF dose response in serum matrix, 0.21 ng/mL NGF, no serum: 5420
- NGF dose response in serum matrix, 0.62 ng/mL NGF, 1% human serum: 13400
- NGF dose response in serum matrix, 0.62 ng/mL NGF, 2% rat serum: 29400
- NGF dose response in serum matrix, 0.62 ng/mL NGF, 5% cyno serum: 32500
- NGF dose response in serum matrix, 0.62 ng/mL NGF, no serum: 17100
- NGF dose response in serum matrix, 1.85 ng/mL NGF, 1% human serum: 19500
- NGF dose response in serum matrix, 1.85 ng/mL NGF, 2% rat serum: 37700
- NGF dose response in serum matrix, 1.85 ng/mL NGF, 5% cyno serum: 43100
- NGF dose response in serum matrix, 1.85 ng/mL NGF, no serum: 27400
- NGF dose response in serum matrix, 5.56 ng/mL NGF, 1% human serum: 22200
- NGF dose response in serum matrix, 5.56 ng/mL NGF, 2% rat serum: 43400
- NGF dose response in serum matrix, 5.56 ng/mL NGF, 5% cyno serum: 52200
- NGF dose response in serum matrix, 5.56 ng/mL NGF, no serum: 35200
- NGF dose response in serum matrix, 16.67 ng/mL NGF, 1% human serum: 24600
- NGF dose response in serum matrix, 16.67 ng/mL NGF, 2% rat serum: 42400
- NGF dose response in serum matrix, 16.67 ng/mL NGF, 5% cyno serum: 51800
- NGF dose response in serum matrix, 16.67 ng/mL NGF, no serum: 39700
- NGF dose response in serum matrix, 50.00 ng/mL NGF, 1% human serum: 19700
- NGF dose response in serum matrix, 50.00 ng/mL NGF, 2% rat serum: 46900
- NGF dose response in serum matrix, 50.00 ng/mL NGF, 5% cyno serum: 56400
- NGF dose response in serum matrix, 50.00 ng/mL NGF, no serum: 41000
- NGF dose response in serum matrix, 150.00 ng/mL NGF, 1% human serum: 18600
- NGF dose response in serum matrix, 150.00 ng/mL NGF, 2% rat serum: 49500
- NGF dose response in serum matrix, 150.00 ng/mL NGF, 5% cyno serum: 62100
- NGF dose response in serum matrix, 150.00 ng/mL NGF, no serum: 44100
- [3H]-thymidine counts, NECDsc-14 NGF-dependent, 0.02 ng/ml: 1960 counts
- [3H]-thymidine counts, NECDsc-14 NGF-dependent, 0.07 ng/ml: 4690 counts
- [3H]-thymidine counts, NECDsc-14 NGF-dependent, 0.21 ng/ml: 8030 counts
- [3H]-thymidine counts, NECDsc-14 NGF-dependent, 0.62 ng/ml: 16800 counts
- [3H]-thymidine counts, NECDsc-14 NGF-dependent, 1.85 ng/ml: 22400 counts
- [3H]-thymidine counts, NECDsc-14 NGF-dependent, 5.56 ng/ml: 24200 counts
- [3H]-thymidine counts, NECDsc-14 NGF-dependent, 16.67 ng/ml: 22900 counts
- [3H]-thymidine counts, NECDsc-14 NGF-dependent, 50.00 ng/ml: 21600 counts
- [3H]-thymidine counts, NECDsc-14 NGF-dependent, 150.00 ng/ml: 20900 counts
